According to patent US7432061B2, “Assays for measuring matrix metalloproteinase activities” (BioZyme, Inc., priority 2002, dated 2008):
Primed or numbered codes have the meaning given here. The star is where a group is joined. Dabcyl″ = Dabcyl quencher at the N-terminus, CN(C)c1ccc(/N=N/c2ccc(C(=O)*)cc2)cc1; Flu = fluorescein label on the cysteine side chain; Dabcyl′ = CN(C)c1ccc(/N=N/c2ccc(C(=O)*)cc2)cc1; fluorescein = fluorescein label

How the values were obtained:
Format in all cases: biochemical
collagenase 3 [1] = molecular target: T1, collagenase 3 (Homo sapiens, UniProt P45452); test: kcat/Km of fluorescence peptide substrates; settings: for Col-3 Specificity Constant: fluorescence substrate, + Gel = PRIONEX GELATIN 1:250
stromelysin 1 [2] = molecular target: T2, stromelysin 1 (Homo sapiens, UniProt P08254); test: kcat/Km of fluorescence peptide substrates; settings: for reduction of substrate selectivity for stromelysin 1 relative to FlSb1: fluorescence substrates; for Strom1 Selectivity v Col-3: fluorescence substrate, + Gel = PRIONEX GELATIN 1:250
T2 sequence (P08254 100-477): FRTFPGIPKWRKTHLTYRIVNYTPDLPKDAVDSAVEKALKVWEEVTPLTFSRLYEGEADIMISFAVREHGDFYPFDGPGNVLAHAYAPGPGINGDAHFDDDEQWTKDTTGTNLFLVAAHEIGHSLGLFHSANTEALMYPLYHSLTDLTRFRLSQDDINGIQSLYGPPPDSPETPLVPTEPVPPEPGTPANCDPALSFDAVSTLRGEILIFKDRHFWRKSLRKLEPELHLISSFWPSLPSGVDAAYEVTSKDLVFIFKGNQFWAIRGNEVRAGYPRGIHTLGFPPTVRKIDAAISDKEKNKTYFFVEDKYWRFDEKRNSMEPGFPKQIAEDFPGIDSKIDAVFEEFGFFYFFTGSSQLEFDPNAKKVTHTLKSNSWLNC

collagenase 3 [3] = molecular target: T1, collagenase 3; test: Inhibition with type II collagen, FlSub3 cleavage; settings: Time Period 0.85 to 2.10 Hours; 20 uM FlSub3 with bovine type II collagen
Method: In a 96 well plate, collagenase 3 (0.013 nM), collagenase 1 (1.25 nM), stromelysin 1 (0.8 nM), gelatinase A (0.025 nM), or gelatinase B (0.008 nM) were reacted with 20 uM FlSub3 in standard assay buffer in the presence of varying concentrations of bovine type II collagen (0.18-44 ug/ml). The type II collagen, a 1 mg/ml stock in 0.5M acetic acid, was transferred into assay buffer by passing the material through a biospin P6 column from Amersham. The reaction was initiated by addition of substrate to enzyme containing either buffer or an appropriate amount of type II collagen. Data points were taken every 15 min over a period of 15 hours using an excitation and emission wavelength of 350 and 485 nm respectively. The usable data (1-6 hours), was taken and the percent inhibition by type II collagen was calculated for each enzyme and plotted as a function of inhibitor concentration and time in the assay. It should be noted that the percent inhibition varies with time as the bovine substrate is consumed during the reaction course.

gelatinase A = molecular target: T3, gelatinase A (Homo sapiens, UniProt P08253); test: Cleavage of biglycan and type IV collagen by MMPs (gel); settings: earlier experiment
T3 sequence (P08253 110-660): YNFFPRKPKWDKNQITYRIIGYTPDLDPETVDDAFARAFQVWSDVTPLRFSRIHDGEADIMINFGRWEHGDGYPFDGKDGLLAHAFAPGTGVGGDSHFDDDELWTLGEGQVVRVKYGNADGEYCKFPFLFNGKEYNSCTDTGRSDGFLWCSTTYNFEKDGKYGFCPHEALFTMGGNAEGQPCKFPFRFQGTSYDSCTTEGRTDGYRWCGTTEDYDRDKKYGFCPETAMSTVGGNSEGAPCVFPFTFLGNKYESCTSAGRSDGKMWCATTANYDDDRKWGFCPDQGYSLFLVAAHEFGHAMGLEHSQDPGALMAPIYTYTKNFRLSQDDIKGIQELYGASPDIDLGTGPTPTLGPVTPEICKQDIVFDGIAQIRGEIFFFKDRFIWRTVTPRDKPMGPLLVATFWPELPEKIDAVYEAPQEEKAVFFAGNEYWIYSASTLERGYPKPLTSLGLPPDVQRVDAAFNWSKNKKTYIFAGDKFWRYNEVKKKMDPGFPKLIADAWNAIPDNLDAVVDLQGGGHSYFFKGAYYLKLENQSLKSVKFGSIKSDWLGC
Method: (§1) Reactions were carried out on a small scale to optimize the enzyme to full length protein ratios. For biglycan, optimum results were obtained with a ratio of 1:100 (20-40 nM col-3 and 4.3 μM biglycan in a 10 μl reaction). For type IV collagen, best results were found with a ratio of 1:50 (28 nM col-3 and 2 μM type IV collagen). For comparison with the other MMPs, an equal concentration of enzyme was used.

collagenase 1 = molecular target: T4, collagenase 1 (Homo sapiens, UniProt P03956); test: as above; settings: equal concentration of enzyme as col-3
T4 sequence (P03956 100-469): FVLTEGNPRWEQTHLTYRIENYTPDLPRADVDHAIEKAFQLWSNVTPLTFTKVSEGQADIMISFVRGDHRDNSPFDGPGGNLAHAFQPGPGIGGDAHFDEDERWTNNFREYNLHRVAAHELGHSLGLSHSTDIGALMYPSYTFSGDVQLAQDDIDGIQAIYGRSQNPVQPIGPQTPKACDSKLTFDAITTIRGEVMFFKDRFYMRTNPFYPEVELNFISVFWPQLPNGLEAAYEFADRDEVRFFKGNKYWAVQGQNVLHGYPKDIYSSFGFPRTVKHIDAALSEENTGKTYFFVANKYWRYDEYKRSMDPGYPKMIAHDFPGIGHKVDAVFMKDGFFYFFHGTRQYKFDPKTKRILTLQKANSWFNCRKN
Method: as §1

gelatinase B = gelatinase B (Homo sapiens, UniProt P14780); test: as above; settings: equal concentration of enzyme as col-3
Chain of gelatinase B (P14780 94-707): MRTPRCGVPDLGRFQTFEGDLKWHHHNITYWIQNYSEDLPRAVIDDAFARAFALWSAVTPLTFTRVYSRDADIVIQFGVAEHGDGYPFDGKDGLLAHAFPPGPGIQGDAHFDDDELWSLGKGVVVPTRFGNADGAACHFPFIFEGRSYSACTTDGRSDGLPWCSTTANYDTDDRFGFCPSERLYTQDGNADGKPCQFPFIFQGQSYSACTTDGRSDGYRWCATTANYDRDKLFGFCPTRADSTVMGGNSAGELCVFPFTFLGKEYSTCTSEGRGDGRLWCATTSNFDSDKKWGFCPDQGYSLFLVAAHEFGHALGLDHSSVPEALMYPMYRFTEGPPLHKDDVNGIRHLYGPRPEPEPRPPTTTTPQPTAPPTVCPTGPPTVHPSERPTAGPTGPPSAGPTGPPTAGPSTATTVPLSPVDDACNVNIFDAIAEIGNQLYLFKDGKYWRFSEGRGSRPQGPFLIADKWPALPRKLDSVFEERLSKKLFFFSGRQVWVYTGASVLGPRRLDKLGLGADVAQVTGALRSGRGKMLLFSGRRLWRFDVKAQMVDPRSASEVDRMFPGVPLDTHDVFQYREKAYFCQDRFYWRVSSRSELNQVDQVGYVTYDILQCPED
Method: as §1

stromelysin 1 [4] = molecular target: T2, stromelysin 1; test: as above; settings: equal concentration of enzyme as col-3
Method: as §1

“Dab-SYPSGIHLC(Flu)LQR-NH2 ({Dabcyl″}-SYPSGIHLC(Flu)LQR-NH2) [FlSb2, fluorescence substrate based on the sulfate transporter]” was tested, and the “less sensitive for collagenase 3 compared to the consensus substrate” value (collagenase 3 [1]; compared to FlSb1) was 100 fold and the “selectivity compared to FlSb1” value (collagenase 3 [1]; kcat/Km against the five MMPs) was “less selective”.

“Dabcyl-GPHPFRGC(Flu)-NH2 ({Dabcyl″}-GPHPFRGC(Flu)-NH2) [FISb4]” was tested, and the “Col-3 Specificity Constant” value (collagenase 3 [1]) was 3.27E+04 1/sM and the “reduction of substrate selectivity for stromelysin 1 relative to FlSb1” value (stromelysin 1 [2]) was “approximately 10 fold”.

In the case of “Dabcyl-GPVNLHGC(Flu)-NH2 ({Dabcyl″}-GPVNLHGC(Flu)-NH2) [FISb3]”, the “Col-3 Specificity Constant” value (collagenase 3 [1]) is reported as 4.21E+05 1/sM, the “Col-3 Specificity Constant” value (collagenase 3 [3]) is reported as 1.11E+06 1/sM and the “reduction of substrate selectivity for stromelysin 1 relative to FlSb1” value (stromelysin 1 [2]) is reported as “approximately 10 fold”.

For “type IV collagen: full length protein digested with collagenase 3 and other MMPs”, the “cleavage of full length protein by gelatinase A” value (gelatinase A) was “No detectable cleavage”, the “cleavage of full length protein by collagenase 1” value (collagenase 1) was “processed” and the “cleavage of full length protein by gelatinase B” value (gelatinase B) was “processed”.

With “Dabcyl-GPLGMRGC(Fluorescein)-NH2 ({Dabcyl′}-GPLGMRGC(fluorescein)-NH2) [FISb1]” the “Strom1 Selectivity v Col-3” value (stromelysin 1 [2]) was 707.5 unitless and the “Strom1 Selectivity v Col-3” value (stromelysin 1 [2]; listed as Fluorescence Substrate 1) was 3665 unitless.

B1: biglycan: proteoglycan, full length protein digested with collagenase 3 and other MMPs (protein, UniProt P21810 38-368, looked up)
Biglycan: DEEASGADTSGVLDPDSVTPTYSAMCPFGCHCHLRVVQCSDLGLKSVPKEISPDTTLLDLQNNDISELRKDDFKGLQHLYALVLVNNKISKIHEKAFSPLRKLQKLYISKNHLVEIPPNLPSSLVELRIHDNRIRKVPKGVFSGLRNMNCIEMGGNPLENSGFEPGAFDGLKLNYLRISEAKLTGIPKDLPETLNELHLDHNKIQAIELEDLLRYSKLYRLGLGHNQIRMIENGSLSFLPTLRELHLDNNKLARVPSGLPDLKLLQVVYLHSNNITKVGVNDFCPMGFGVKRAYYNGISLFNNPVPYWEVQPATFRCVTDRLAIQFGNYKK
For B1, the “cleavage of full length protein by stromelysin 1” value (stromelysin 1 [4]) was “able to degrade” and the “cleavage of full length protein by gelatinase B” value (gelatinase B) was “able to degrade”.
